Reference: the supplement of paper PMC5998384

How the values were obtained:
HeLa Kyoto [1] = test: melting temperature (median over replicates), in situ; higher = more thermally stable
HeLa Kyoto [2] = test: solubility change mitosis vs G1/S (difference of NP-40 vs SDS log2 ratios) (log2 ratio difference); higher = more soluble in mitosis
HeLa Kyoto [3] = test: solubility in G1/S (NP-40 vs SDS abundance) (log2 ratio); higher = more soluble; conditions: cell cycle stage: G1/S
HeLa Kyoto [4] = test: thermal stability score vs G1/S (z-score of summed log2 fold changes over temperatures); higher = more thermally stable than in G1/S
[5] = cell cycle stage: early G1 (4.5 h after nocodazole release)
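Wherever melting temperature (median over replicates), in situ is given: HeLa Kyoto cells synchronized by double thymidine or nocodazole block, proteins quantified by TMT10plex mass spectrometry, three independent biological replicates.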
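Wherever solubility change mitosis vs G1/S (difference of NP-40 vs SDS log2 ratios) is given: synchronized HeLa Kyoto cells (double thymidine block for G1/S, nocodazole release for mitosis), protein amounts in NP-40 versus SDS lysates quantified by mass spectrometry, three biological replicates.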
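Wherever solubility in G1/S (NP-40 vs SDS abundance) is given: HeLa Kyoto cells arrested at G1/S by double thymidine block, proteins quantified by TMT10plex mass spectrometry in mild NP-40 versus SDS extracts, three biological replicates.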
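Wherever thermal stability score vs G1/S (z-score of summed log2 fold changes over temperatures) is given: synchronized HeLa Kyoto cells, proteins quantified by TMT10plex mass spectrometry, three biological replicates, mitosis taken 0.5 h after nocodazole release, G1/S directly after double thymidine block.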

Sequence	melting temperature (HeLa Kyoto [1]; cell cycle stage: G1/S) [°C]	melting temperature (HeLa Kyoto [1]; cell cycle stage: mitosis) [°C]	solubility change mitosis (log2) (HeLa Kyoto [2])	solubility in G1/S (log2) (HeLa Kyoto [3])	thermal stability score (HeLa Kyoto [4]; [5])	thermal stability score (HeLa Kyoto [4]; cell cycle stage: mitosis)
MAELRVLVAVKRVIDYAVKIRVKPDRTGVVTDGVKHSMNPFCEIAVEEAVRLKEKKLVKEVIAVSCGPAQCQETIRTALAMGADRGIHVEVPPAEAERLGPLQVARVLAKLAEKEKVDLVLLGKQAIDDDCNQTGQMTAGFLDWPQGTFASQVTLEGDKLKVEREIDGGLETLRLKLPAVVTADLRLNEPRYATLPNIMKAKKKKIEVIKPGDLGVDLTSKLSVISVEDPPQRTAGVKVETTEDLVAKLKEIGRI [ETFB]	54	54.2	0.0272	0.362	-1.74	-0.806
MAENHAQNKAKLISETRRRFEAEYVTDKSDKYDARDVERLQQDDNWVESYLSWRHNIVDETLKMLDESFQWRKEISVNDLNESSIPRWLLEIGVIYLHGYDKEGNKLFWIRVKYHVKDQKTILDKKKLIAFWLERYAKRENGKPVTVMFDLSETGINSIDMDFVRFIINCFKVYYPKYLSKIVIFDMPWLMNAAFKIVKTWLGPEAVSLLKFTSKNEVQDYVSVEYLPPHMGGTDPFKYSYPPLVDDDFQTPLCENGPITSEDETSSKEDIESDGKETLETISNEEQTPLLKKINPTESTSKAEENEKVDSKVKAFKKPLSVFKGPLLHISPAEELYFGSTESGEKKTLIVLTNVTKNIVAFKVRTTAPEKYRVKPSNSSCDPGASVDIVVSPHGGLTVSAQDRFLIMAAEMEQSSGTGPAELTQFWKEVPRNKVMEHRLRCHTVESSKPNTLTLKDNAFNMSDKTSEDICLQLSRLLESNRKLEDQVQRCIWFQQLLLSLTMLLLAFVTSFFYLLYS [MOSPD2]	51.4	51.4	-0.115	-0.0365	1.72	0.81
MAENTEGDLNSNLLHAPYHTGDPQLDTAIGQWLRWDKNPKTKEQIENLLRNGMNKELRDRLCCRMTFGTAGLRSAMGAGFCYINDLTVIQSTQGMYKYLERCFSDFKQRGFVVGYDTRGQVTSSCSSQRLAKLTAAVLLAKDVPVYLFSRYVPTPFVPYAVQKLKAVAGVMITASHNRKEDNGYKVYWETGAQITSPHDKEILKCIEECVEPWNGSWNDNLVDTSPLKRDPLQDICRRYMEDLKKICFYRELNSKTTLKFVHTSFHGVGHDYVQLAFKVFGFKPPIPVPEQKDPDPDFSTVKCPNPEEGESVLELSLRLAEKENARVVLATDPDADRLAAAELQENGCWKVFTGNELAALFGWWMFDCWKKNKSRNADVKNVYMLATTVSSKILKAIALKEGFHFEETLPGFKWIGSRIIDLLENGKEVLFAFEESIGFLCGTSVLDKDGVSAAVVVAEMASYLETMNITLKQQLVKVYEKYGYHISKTSYFLCYEPPTIKSIFERLRNFDSPKEYPKFCGTFAILHVRDVTTGYDSSQPNKKSVLPVSKNSQMITFTFQNGCVATLRTSGTEPKIKYYAEMCASPDQSDTALLEEELKKLIDALIENFLQPSKNGLIWRSV [PGM2L1]	53.4	54.2	-0.173	0.0482	0.325	-0.133
MAEPSAPESKHKSSLNSSPWSGLMALGNSRHGHHGPGAQCAHKAAGGAAPPKPAPAGLSGGLSQPAGWQSLLSFTILFLAWLAGFSSRLFAVIRFESIIHEFDPWFNYRSTHHLASHGFYEFLNWFDERAWYPLGRIVGGTVYPGLMITAGLIHWILNTLNITVHIRDVCVFLAPTFSGLTSISTFLLTRELWNQGAGLLAACFIAIVPGYISRSVAGSFDNEGIAIFALQFTYYLWVKSVKTGSVFWTMCCCLSYFYMVSAWGGYVFIINLIPLHVFVLLLMQRYSKRVYIAYSTFYIVGLILSMQIPFVGFQPIRTSEHMAAAGVFALLQAYAFLQYLRDRLTKQEFQTLFFLGVSLAAGAVFLSVIYLTYTGYIAPWSGRFYSLWDTGYAKIHIPIIASVSEHQPTTWVSFFFDLHILVCTFPAGLWFCIKNINDERVFVALYAISAVYFAGVMVRLMLTLTPVVCMLSAIAFSNVFEHYLGDDMKRENPPVEDSSDEDDKRNQGNLYDKAGKVRKHATEQEKTEEGLGPNIKSIVTMLMLMLLMMFAVHCTWVTSNAYSSPSVVLASYNHDGTRNILDDFREAYFWLRQNTDEHARVMSWWDYGYQIAGMANRTTLVDNNTWNNSHIALVGKAMSSNETAAYKIMRTLDVDYVLVIFGGVIGYSGDDINKFLWMVRIAEGEHPKDIRESDYFTPQGEFRVDKAGSPTLLNCLMYKMSYYRFGEMQLDFRTPPGFDRTRNAEIGNKDIKFKHLEEAFTSEHWLVRIYKVKAPDNRETLDHKPRVTNIFPKQKYLSKKTTKRKRGYIKNKLVFKKGKKISKKTV [STT3B]	53.8	54.2	-0.0861	-0.175	3.35	3.7
MAETAAGVGRFKTNYAVERKIEPFYKGGKAQLDQTGQHLFCVCGTRVNILEVASGAVLRSLEQEDQEDITAFDLSPDNEVLVTASRALLLAQWAWQEGSVTRLWKAIHTAPVATMAFDPTSTLLATGGCDGAVRVWDIVRHYGTHHFRGSPGVVHLVAFHPDPTRLLLFSSATDAAIRVWSLQDRSCLAVLTAHYSAVTSLAFSADGHTMLSSGRDKICIIWDLQSCQATRTVPVFESVEAAVLLPEEPVSQLGVKSPGLYFLTAGDQGTLRVWEAASGQCVYTQAQPPGPGQELTHCTLAHTAGVVLTATADHNLLLYEARSLRLQKQFAGYSEEVLDVRFLGPEDSHVVVASNSPCLKVFELQTSACQILHGHTDIVLALDVFRKGWLFASCAKDQSVRIWRMNKAGQVMCVAQGSGHTHSVGTVCCSRLKESFLVTGSQDCTVKLWPLPKALLSKNTAPDNGPILLQAQTTQRCHDKDINSVAIAPNDKLLATGSQDRTAKLWALPQCQLLGVFSGHRRGLWCVQFSPMDQVLATASADGTIKLWALQDFSCLKTFEGHDASVLKVAFVSRGTQLLSSGSDGLVKLWTIKNNECVRTLDAHEDKVWGLHCSRLDDHALTGASDSRVILWKDVTEAEQAEEQARQEEQVVRQQELDNLLHEKRYLRALGLAISLDRPHTVLTVIQAIRRDPEACEKLEATMLRLRRDQKEALLRFCVTWNTNSRHCHEAQAVLGVLLRREAPEELLAYEGVRAALEALLPYTERHFQRLSRTLQAAAFLDFLWHNMKLPVPAAAPTPWETHKGALP [TBL3]	50.6	51.3	0.233	-0.936	1.58	-0.746
MAETEERSLDNFFAKRDKKKKKERSNRAASAAGAAGSAGGSSGAAGAAGGGAGAGTRPGDGGTASAGAAGPGAATKAVTKDEDEWKELEQKEVDYSGLRVQAMQISSEKEEDDNEKRQDPGDNWEEGGGGGGGMEKSSGPWNKTAPVQAPPAPVIVTETPEPAMTSGVYRPPGARLTTTRKTPQGPPEIYSDTQFPSLQSTAKHVESRKDKEMEKSFEVVRHKNRGRDEVSKNQALKLQLDNQYAVLENQKSSHSQYN [CDV3]	57.2	53.4	0.0994	-0.0527	-2.3	-4.45
MAEVKVKVQPPDADPVEIENRIIELCHQFPHGITDQVIQNEMPHIEAQQRAVAINRLLSMGQLDLLRSNTGLLYRIKDSQNAGKMKGSDNQEKLVYQIIEDAGNKGIWSRDIRYKSNLPLTEINKILKNLESKKLIKAVKSVAASKKKVYMLYNLQPDRSVTGGAWYSDQDFESEFVEVLNQQCFKFLQSKAETARESKQNPMIQRNSSFASSHEVWKYICELGISKVELSMEDIETILNTLIYDGKVEMTIIAAKEGTVGSVDGHMKLYRAVNPIIPPTGLVRAPCGLCPVFDDCHEGGEISPSNCIYMTEWLEF [POLR3F]	52.4	52.7	-0.0255	0.528	-0.67	-1.78
MAFAETYPAASSLPNGDCGRPRARPGGNRVTVVLGAQWGDEGKGKVVDLLAQDADIVCRCQGGNNAGHTVVVDSVEYDFHLLPSGIINPNVTAFIGNGVVIHLPGLFEEAEKNVQKGKGLEGWEKRLIISDRAHIVFDFHQAADGIQEQQRQEQAGKNLGTTKKGIGPVYSSKAARSGLRMCDLVSDFDGFSERFKVLANQYKSIYPTLEIDIEGELQKLKGYMEKIKPMVRDGVYFLYEALHGPPKKILVEGANAALLDIDFGTYPFVTSSNCTVGGVCTGLGMPPQNVGEVYGVVKAYTTRVGIGAFPTEQDNEIGELLQTRGREFGVTTGRKRRCGWLDLVLLKYAHMINGFTALALTKLDILDMFTEIKVGVAYKLDGEIIPHIPANQEVLNKVEVQYKTLPGWNTDISNARAFKELPVNAQNYVRFIEDELQIPVKWIGVGKSRESMIQLF [ADSS]	57.5	56.5	-0.0978	0.288	-2.13	-2.82
